From US20250325622A1, “Autoimmune Disease Modulation Protocol” (priority 2024, published 2025)

Tested on: lupus anticoagulants
Test: PTT-LA Screen, lupus patient case study
Type: in vivo, human
Conditions: coinciding with the first IV infusion, before the protocol; reference range <=40 sec
Method: On Jan. 5, 2023, the invention was administered to a person who was previously diagnosed in July 2019 with the autoimmune disease Lupus. This diagnosis was validated through a complete ANA Screen blood test panel conducted in July and subsequently in August of 2019 for a second confirmation. The patient was on standard therapies and medications typically prescribed for Lupus until December 2022, during which their symptoms progressively deteriorated. Of note, the patient voluntarily ceased all standard treatments for Lupus and other related auto-immune diseases one month prior to commencing the invention, under the supervision of their treating rheumatologist of the Arthritis & Rheumatic Disease Specialties center.
PTT-LA Screen: Tests for the presence of lupus anticoagulants, which are antibodies that can interfere with blood clotting and are commonly found in lupus patients.

Inflectra: intravenous (IV) infusion treatment, a monoclonal antibody used to treat a range of inflammatory autoimmune diseases
PTT-LA levels: significant spike
